Assay [1] addresses HA of A/New Caledonia/20/1999 (influenza A virus A/New Caledonia/20/1999) (UniProt Q6WG00).
For assay [2], the target named is HA of A/mallard/Alberta/35/1976 (influenza A virus A/mallard/Alberta/35/1976). Nature of the assay: BLI. (In BLI a coated tip is dipped into the sample, and binding shifts an interference pattern.)

Usually Kd stands for the constant that tells how readily two partners part at equilibrium. The low end stands for a tighter complex, the high end for a looser complex. By koff is commonly meant the first-order rate constant of dissociation. A lower koff goes with slow dissociation. The kon is a measure of how fast the partners come together. A low value points to slow association.

For the substance C05 WT (antibody), the HAI, antibody concentration at the endpoint titer; virus A/New Caledonia/20/1999 in assay [1] worked out at 0.2 µg/mL. For the same substance, in assay [2], the Kd turned out to be 511 nM, the koff came to 0.0021 s⁻¹ and the on-rate (kon) came out at 4100 M⁻¹ s⁻¹.

The record behind these values is article PMC6358683.
